Results: the DeepSol protein solubility set

Assay: soluble on expression in E. coli; label from the status in PepcDB or PDB records

| Sequence | soluble on expression in E. coli |
| --- | --- |
| GPGSMSNNMLALPKVLLMGLRKSGKSSIQKVVFEGMQPHDSATLATTVQPEKSTVHSNDFVNFEVWDFPGQNDPFDSSNASRYDVNQLLENCGAIVYVLDCRELIDDARARLLDTISAAYRHNPELCVEVFIHKVDALSEDHQADLLASLQRRVEEEAKPLLENVQPLRLNFNLTSIYDHSVFQAFSLVVQKLIKSKTPYITELLQMLNSNSNIDLSYLFLSHSKIYVAVDERNRLKSRTYDLCSDAIEVVVKMSGIYMRQRDGVAGGVKDAFTDSVHSLAASATSRTIISSSLGSADGCASDVSELYRGANAVIQLSNEDCIYVRELPSSLTLVLMMKQTHLENRALIDRNVDIFYKAAFDIFSTSAS | not soluble |
| MGSDKIHHHHHHMQILLANPRGFCAGVDRAISIVERALELFGTPIYVRHEVVHNRYVVNGLRERGAIFIEQIEDVPDGAILIFSAHGVSQAVRNEAKNRDLTVFDATCPLVTKVHMEVARASKKGVEAILIGHAGHPEVEGTMGQYSNADGGMYLVESPDDVWQLQVKDEKNLCFMTQTTLSVDDTYAVIDALRERFPRIIGPRKDDICYATTNRQEAVRHLSDKADVVFVVGSKNSSNSNRLAELAQRAGKAAYLIDSADDIQESWLTGASYVGVTAGASAPDILVQQVIQRLKELGGKVAVEMQGREENIVFEVPKELRVEVKQID | not soluble |
| MAHLVITIGCEYGAKGNQIGKKVAKDLGIKFYDRDTVDEIIKEVGIPKDIMEKVEEGITIAGKGAEGDVRGSFSKYADLTERAIHVQKTIIRKLSDRESCVIIGRSADYILKEHKPILRIFIYSPDEVRIENVMKSHNLSEDDAKLFITEKDKRYHKRHMALTGSNRGDRHNRDMLIDSSLLGVDGTAELIESLARKVVENESKTEAGGDK | not soluble |
| MSASEFTLVPTTESDRTYIARLNFLTDVFGDEHADIGADFLEDYRFYVKQWDPTNGGLIAWSPKMIPAGGAWLVWGNNNDHGYGYVSEDIPEVAIAIEPRYRGKGVGSILLNKSLELARTLGAPGLSLSVDDGNPRAKKLYERLGFQHIRHSDAGFSIMCYRF | not soluble |
| MSITSPVSNTWAPTVKGPHGTQSKIDTKSLSPNLSRAELRKQVRLARRSLSTEVQAEASINACERMLKKLMAMNAQHVALYLTHDGELATAPLIAALWQRGIQTYLPRLHPFNAGQLLFLHYHADSPMQPNQYGILEPKLDVRSVMPIERLDVVVTPLVAFDIKGNRMGMGGGYYDRTLANWQDNGKPLPMGYAHDCQQVPSLPCEHWDVPLPAIITPSRVWEFLEHHHHHH | soluble |
| MGSDKIHHHHHHMGIYFNPGNGSFTKDKNSQLYIDKTGLIEYLNRVICTNANCISVSHARRFGKSHAAGMIDAYYSRGCDSSELFADSEIAAKDSYSAHLNKYNVIHIDVSSFWDAYKDNVIEKIQEYIYDELKQVYGDQIDYTKMISAVLMSVYNISDIPFVIIIDEWDCVIRNGGNKTLVHSYLQFLHLLFKSEESKTFLALAYITGILPIKKIKDESALNNFREFTMLKSKQLTRYFGFTEDEVKKLCITYDMDFESIKAWYNGYLIDGLHMYNPNSVVQAMLDHDYDFYWKNTSSFESINTFITMNYAGLKDDVLAMLSGDKIRVNVNTFQNDLTTVASKDDALTALIHLGYLAYDANRKMAYIPNYEVAAAYDLALQTGSWSEVANSISKCDELLDATLNEDADKVAELVEIAHETYTSVLKYNDENSLSCALTMAYFTANAYYNIVREFPAGKGFADLVFIPRANACGRPAIVIELKYNASADSAISQIKNRRYHGALSGYSNQILLVGINYSNTSDNKKHTCIIESINNLD | not soluble |
| CVTGDTLVFTDKGLIEARKLEVGMKVWSGDGWNEIKEVINNGVKPVLKLKLKTGLEIKVTEEHKIFTGEGWKEAKDLKVGDKLYLPVSYPELDFPVKEENDFYEFLGYFLGDGSLSVSNHVSLHVGNDKELALYFKEKVEKYAGAAYLIERDGQYIIDVHRKEFAEKIKKIFGIEITDSKEKDIPSSLLAVNSEAMKALLRGLFSADGSVYDANGSITVALSSTSYPLLRKVQILLLSLGIPSTLTGEKDQDVKIIKGNEYETLPTYRLIISGERASLFFNKIGLIGEKKKKFLELMAGKTTYSTLNNHLYQEIVSIEPAGEEEVFDITAPPKYTWITNGILSLD | soluble |
| MEYSDIRDRILLATLPNVPFDGWSGKALRLGAESAGFDREAADRAFPGGPAEAVGHFIDLANRMMEADLGARDLSGLKLPEKIHLAIKLRLERWAGDREAVRRGLALLSLPGHARLSLKSTYATVDGIWHAVGDRSVDFSFYTKRAELAAIYGATLLVWLEDTSEESAETWAFLDRRLEGVIRLRKARAKLRERMTHLPTLPRLLNPLDLVRKPFGLMRSMRMRLEHHHHHH | soluble |
| MAHHHHHHMDKDKDKSKNTPLLYQDTMNDLGDGLQNMDTLRLNRNGNTGNGNKNKTNGSKGVKGEYEKKKETNGHDDYVKESLNRMLESHIDQYFKGLDYYKNNPKCKIDPKIHLHGSEEIENYIVKEKIFVTTYFQYIDVYENAINVDEDLEKEEIVYVEVPKYVTKYKPKIVTNIIEKTIEIPSGEEIKQPKYNTVNVPYVIPNIVENEILVVLKKIIQPEIEITNEELEIEVEKYIPRLVPVNVYVPRYFGISAKAKGEPEESVRYVDLTQDQIDELMKELNPHLNELKVFNETQLKRMDEYMRESQMQARAHNFEPPQPQLITYDESGHCQSYDYSEFHRFKETCIKELTH | not soluble |
| MSKTIIKNIGKIVSGDIKSPVLQADTIVVEDGLIAAIGGEELMKDAGDATIIDAAGSTVTPGLLDTHVHVSGGDYAPRQKTMDFISSALHGGVTTMISAGSPHFPGRPKDAAGTKALAITLSKSYYNARPAGVKVHGGAVILEKGLTEEDFIEMKKEGVWIVGEVGLGTIKNPEDAAPMVEWAHKHGFKVQMHTGGTSIPGSSTVTADDVIKTKPDVVSHINGGPTAISVQEVDRIMDETDFAMEIVQCGNPKIADYVARRAAEKGQLGRVIFGNDAPSGTGLIPLGILRNMCQIASMSDIDPEVAVCMATGNSTAVYGLNTGVIAPGKEADLIIMDTPLGSVAEDAMGAIAAGDIPGISVVLIDGEAVVTKSRNTPPAKRAAKIL | soluble |
| MSLSLSLAEARRLALAAQGFDGRRTRRSVQRRHLREMLARLGLLQIDSVNALVRSHYLPLFSRLGPYSMTLLDEAAWSVGRHRQLFEYWGHEASLLPLEHYPLMRWRMRQAADGQGIYQQLARFGREQQPLIRQVLQAVREQGALGAGSLSTRQERAGPWWDWSAEKHALEWLFAAGELTVAGRRGFERLYDLPERVFPAELLARPELSEAQAQRELLRMAASALGVATEKDLRDYYRLSPAQSRARLAELVEAGELLPVRVEGWSQPAYCPGEPQVPRRLGASALLSPFDSLVWERARAERLFDFRYRLEIYTPKEKRVYGYYVLPFLYNGRLVGRVDLRAERARERLVVHALHAEANGMDDAALHELAEQLRSMAAWLGLATVAIEGRGELAVRLRGVLLLEHHHHHH | not soluble |
| MAEEPKGVPLSELSLQQLGELQKNCEQELNFFQESFNALKGLLTRNEKSISALDDVKIATAGHTALIPLSESLYIRAELSDPSKHLVEIGTGYFVELDREKAKAIFDRKKEHITKQVETVEGILKEKRRTRAYISDAFQTKVQSQLATMNTQ | not soluble |
| GPGSAEKKQKQHFYLTQEMPPRRDPERQRAKVAAATMAPSEHKKASLPPAKLRLNLGPFLPQKKKNRPPKTTEIDWGSEQTPRLQCSWHPQRRNGIVSFPVMMSYPVSCHCAAWGCHITRAYPTMTRQGAHRLASPKVGRPRRSTRKPDQK | soluble |
| MKDVSKNQEENISDTALTNELIHLLGHSRHDWMNKLQLIKGNLSLQKYDRVFEMIEEMVIDAKHESKLSNLKTPHLAFDFLTFNWKTHYMTLEYEVLGEIKDLSAYDQKLAKLMRKLFHLFDQAVSRESENHLTVSLQTDHPDRQLILYLDFHGAFADPSAFDDIRQNGYEDVDIMRFEITSHECLIEIGLD | soluble |
| MSEQKIEVVGKLGSTYGIRGWLRLYSSTEKAESIFDYQPWFLKIKGQWQLIELESWRYHSNDLIVKLKGTEDREAAQLLTNAEIGVDLSVFPKLGEEDYYWHDLINCQVVNLENYTMGVVTELMETGSNDVLVVRANSKDAFGKQERLIPFLYKQVVKRVDLSTKTITVDWDAGFLEHHHHHH | soluble |
